Data: patent US20110293648A1 (LUDWIG INSTITUTE FOR CANCER RESEARCH, published 2011)

Experiments:
HLA-DR = experiment: flow cytometry, staining of an EBV cell line (internal control)
MHC class I = experiment: as above
HLA-DRB1*0301 [1] = molecular target: HLA-DRB1*0301 (human); experiment: cell-based or functional assay
HLA-DRB1*0101 = molecular target: T1, HLA-DRB1*0101 (human); experiment: not specified ('The methods described above')
T1 construct: Only the beta allele is printed

HLA-DRB1*1101 = molecular target: T2, HLA-DRB1*1101 (human); experiment: not specified ('The methods described above')
T2 construct: whole, on cells; On antigen presenting cells in the ELISPOT assays

HLA-DRB1*1501 = molecular target: T3, HLA-DRB1*1501 (human); experiment: not specified ('The methods described above')
T3 construct: whole, on cells; On Me 290 cells in the ELISPOT assay

HLA-DRB5*0101 = molecular target: T4, HLA-DRB5*0101 (human); experiment: not specified ('The methods described above')
T4 construct: whole, on cells; On Me 290 cells in the ELISPOT assay

HLA-DRB1*0701 = molecular target: T5, HLA-DRB1*0701 (human); experiment: not specified ('The methods described above')
T5 construct: whole, on cells; On LCL 40 or homozygous EBV line BH in the T cell assays

HLA-DRB1*0301 [2] = molecular target: T6, HLA-DRB1*0301 (human); experiment: not specified ('The methods described above')
T6 construct: whole, on cells; also called DR3; HLA-DR3

anti-HLA-DR antibody clone L243
MFI (HLA-DR): 787 MFI

anti-pan MHC-I antibody clone W6/32
MFI (MHC class I): 271 MFI

B1: SSX-4 37-51 peptide (peptide)
peptide: WEKMKSSEKIVYVYM
cross-recognition by SSX-2 specific, DR3 restricted CD4+ T cells, peptide titration, IFN-gamma ELISA; efficiency against SSX-2 37-51 (HLA-DRB1*0301 [1]): ~10 fold less efficiently

B2: SSX-5 37-51 peptide (peptide)
peptide: WEKMKASEKIFIVYM
cross-recognition by SSX-2 specific, DR3 restricted CD4+ T cells, peptide titration, IFN-gamma ELISA; efficiency against SSX-2 37-51 (HLA-DRB1*0301 [1]): ~3 fold less efficiently

B3: SSX-2 peptide p98-112 (peptide)
peptide: QMTFGRLQGISPKIM
notes: also called p98-111 (as printed once); SSX-2 98-112
binding result (HLA-DRB1*0101): binds
binding result (HLA-DRB1*1101): binds
binding result (HLA-DRB1*1501): binds
binding result (HLA-DRB5*0101): binds

B4: SSX-2 peptide p101-115 (peptide)
peptide: FGRLQGISPKIMPKK
binding result (HLA-DRB1*0701): binds
binding result (HLA-DRB1*0301 [2]): binds
